Key:
[1] = Melting temperature (Tm) of the enzyme at varying EMIM Acetate concentration; type: physicochemical
[2] = Enzymatic hydrolysis of CMC (DNS / Azo-CMC reducing sugar assay) in the presence of EMIM Acetate ([C2mim][OAc]); type: biochemical
Method: (v/v) were incubated at 37° C. (T. viride), 80° C. (TmaEG, Pho EG). The specific activities were calculated as mmoles of reducing sugars formed per min per mg of enzyme. The specific activities are reported as percentages of residual specific activity, taking the specific activity of IL free enzyme a 100% activity. Error bars indicate the standard deviation.
The enzymetic activity of the cellulases of Trichoderma viride, Thermatoga maritima, and Pyrococcus horikoshii are measured under varying concentrations of EMIM Acetate. […] The enzymes activities are calculated using both the Azo-CMC assay and the DNS assay. […] At 10% EMIM Acetate the % specific activity of T. viride endoglucanase is near 0%, while at 20% EMIM Acetate the % specific activity of T. maritima endoglucanase is nearly 40%.
Enzymatic activity is measured on soluble polysaccharide substrates, CMC, using the dinitrosalicylic acid reducing sugar assay. Briefly, CMC (2% w/v) in […] acetate buffer, (100 mM, pH 4.8) is incubated with enzyme at 80° C. for 30 minutes for Tma and 37° C. and 10 minutes for T. viride. The solution is cooled down to 4° C. and 80 μL of DNS solution is added. The reactants are incubated at 95° C. for 5 minutes and cooled down to room temperature before the absorbance is read at 540 nm. The reducing sugar concentration in the sample is calculated from its absorbance using the standard curve of D-glucose. All experiments are run in triplicate.
The purified recombinant enzymes are assayed in the presence of [C2mim][OAc] and the specific activity results are compared with the cellulase from T. viride. [C2mim][OAc] was selected as the IL of choice. The assays are performed under optimum pH and temperatures for T. maritima and T. viride enzymes. Optimum pH and temperatures for T. maritima Cel5A is pH 4.8 and 80° C., respectively. Optimum pH and temperatures for T. viride cellulase is pH 4.5 and 37° C., respectively. The Pho EG is assayed at 80° C. where its specific activity is around 10% less than at 95° C. […] In the presence of 5% (v/v) [C2mim][OAc] the enzyme loses 60% of its activity while it is undetectable in the presence of 10% (v/v) [C2mim][OAc]. Both the recombinant hyperthermophilic enzymes behave very differently. Tma Cel5A in the presence of 5% [C2mim][OAc] loses 24% of its specific activity. At 15% IL (v/v), Tma Cel5A retains 50% of its specific activity. The highest residual activities are observed with Pho EG which retains 100% activity in 20% IL (v/v) (FIG. 6).
Enzymatic activity is measured on soluble polysaccharide substrates, CMC, using the 3,5-dinitrosalicylic acid (DNS) reducing sugar assay. Briefly, 2% CMC (w/v) in […] acetate buffer, (100 mM, pH 4.5 and pH 4.8 for T. viride and Tma, respectively, and 100 mM MES buffer, pH 6.4 for P. hori EG) is incubated at 80° C. for 30 min for Tma Cel5A and Pho enzymes and 37° C. and 10 min for T. viride. The solution is cooled down to 4° C. and […] of DNS solution is added. The reactants are incubated at 95° C. for 5 min and cooled down to room temperature before the absorbance is read at 540 nm. The reducing sugar concentration in the sample is calculated from its absorbance using the standard curve of D-glucose and cellobiose. For hydrolysis reactions in the presence of [C2mim][OAc], control reactions with CMC in the presence of IL but without no enzyme is subtracted from each measurement. The solid substrate (Avicel and corn stover) hydrolysis reactions are conducted at 80° C. for 15 h for the recombinant enzymes and at 37° C. for 8 h in the case of T. viride cellulose at the optimum pH for each enzyme. The reaction products are monitored using an Agilent 1200 HPLC equipped with Varian 380-LC Evaporative Light Scattering Detector. The total reaction volumes are […] and shaken at 900 rpm at temperature controlled shakers. Enzyme loadings are 0.4 mg per g of glucan and each data point is measured in triplicate. […]

B1: Tma Cel5A: wild-type cellulase of Thermatoga maritima strain MSB8 (Accession No. NP_229549); SEQ ID NO: 20 (protein, listed as Thermotoga maritima)
chain: MGVDPFERNKILGRGINIGNALEAPNEGDWGVVIKDEFFDIIKEAGFSHVRIPIRWSTHAYAFPPYKIMDRFFKRVDEVINGALKRGLAVVINIHHYEELMNDPEEHKERFLALWKQIADRYKDYPETLFFEILNEPHGNLTPEKWNELLEEALKVIRSIDKKHTIIIGTAEWGGISALEKLSVPKWEKNSIVTIHYYNPFEFTHQGAEWVEGSEKWLGRKWGSPDDQKHLIEEFNFIEEWSKKNKRPIYIGEFGAYRKADLESRIKWTSFVVREMEKRRWSWAYWEFCSGFGVYDTLRKTWNKDLLEALIGGDSIE
Melting Temp. ([1]; 0% EMIM Acetate, listed as T. maritima): 108 °C
Melting Temp. ([1]; 0% EMIM Acetate, listed as T. maritima endoglucanase): 109 °C
Melting Temp. ([1]; 5% EMIM Acetate): 101 °C
Melting Temp. Decrease ([1]; 5% EMIM Acetate vs 0%): 8 °C
Melting Temp. ([1]; 10% EMIM Acetate): 98 °C
Melting Temp. Decrease ([1]; 10% EMIM Acetate vs 0%): 11 °C
Melting Temp. ([1]; 15% EMIM Acetate): 93 °C
Melting Temp. Decrease ([1]; 15% EMIM Acetate vs 0%): 16 °C
Melting Temp. ([1]; 20% EMIM Acetate): 89 °C
Melting Temp. Decrease ([1]; 20% EMIM Acetate vs 0%): 20 °C
Optimum pH [2]: 4.8
Optimum temperature [2]: 80 °C
tolerance to EMIM Acetate compared to T. viride [2]: more tolerant to EMIM Acetate
% Specific Activity ([2]; 0% EMIM Acetate): 100%
% Specific Activity (Table 5) ([2]; 0% EMIM Acetate): 31 ± 2^ %
activity in 2.9% EMIM Acetate compared with 0% [2]: at least as active in 2.9% EMIM Acetate as in 0% EMIM Acetate
activity in 2.9% EMIM Acetate compared with 0% ([2]; listed as T. maritima): remain unchanged
loss of specific activity ([2]; 5% (v/v) [C2mim][OAc]): 24%
% Specific Activity ([2]; 5% EMIM Acetate): 77%
% Specific Activity (Table 5) ([2]; 5% EMIM Acetate): 24 ± 1^ %
% Specific Activity ([2]; 10% EMIM Acetate): 65%
% Specific Activity (Table 5) ([2]; 10% EMIM Acetate): 20 ± 0.8%
% Specific Activity ([2]; 15% EMIM Acetate): 50%
% Specific Activity (Table 5) ([2]; 15% EMIM Acetate): 15 ± 0.5%
% Specific Activity (Table 5) ([2]; 20% EMIM Acetate): 13 ± 0.9%
% Specific Activity ([2]; 20% EMIM Acetate, listed as T. maritima endoglucanase): 45%

B2: Pho EG: cellulase of Pyrococcus horikoshii strain OT3 (Accession No. NP_143072); SEQ ID NO: 21 (protein, listed as Pyrococcus horikoshii)
chain: MEGNTILKIVLICTILAGLFGQVVPVYAENTTYQTPTGIYYEVRGDTIYMINVTSGEETPIHLFGVNWFGFETPNHVVHGLWKRNWEDMLLQIKSLGFNAIRLPFCTESVKPGTQPIGIDYSKNPDLRGLDSLQIMEKIIKKAGDLGIFVLLDYHRIGCTHIEPLWYTEDFSEEDFINTWIEVAKRFGKYWNVIGADLKNEPHSVTSPPAAYTDGTGATWGMGNPATDWNLAAERIGKAILKVAPHWLIFVEGTQFTNPKTDSSYKWGYNAWWGGNLMAVKDYPVNLPRNKLVYSPHVYGPDVYNQPYFGPAKGFPDNLPDIWYHHFGYVKLELGYSVVIGEFGGKYGHGGDPRDVIWQNKLVDWMIENKFCDFFYWSWNPDSGDTGGILQDDWTTIWEDKYNNLKRLMDSCSKSSSSTQSVIRSTTPTKSNTSKKICGPAILIILAVFSLLLRRAPR
activity in 2.9% EMIM Acetate compared with 0% [2]: at least as active in 2.9% EMIM Acetate as in 0% EMIM Acetate
activity in 2.9% EMIM Acetate compared with 0% ([2]; listed as P. horikoshii): remain unchanged
% Specific Activity ([2]; 20% EMIM Acetate): 100%
specific activity at 80° C. less than at 95° C. ([2]; 80° C. vs 95° C.): around 10%

Source: patent US9322042B2, “Thermostable cellulases, and mutants thereof, capable of hydrolyzing cellulose in ionic liquid” (The Regents of the University of California, priority 2009, dated 2016)
